What was measured:
[1] = molecular target: T1, Tim-3-his (human, UniProt Q8TDQ0 22-202, limits assumed); assay: SPR (BIAcore T-200), antibody captured by anti-human Fab, Tim-3-his flowed
T1 construct: not shown: his tag

[2] = molecular target: T2, Human Fc-tagged Tim-3 IgV domain (human, UniProt Q8TDQ0 22-130, limits assumed); assay: SPR (BIAcore T-200), Fc-tagged Tim-3 IgV domain captured by anti-human IgG, antibody flowed
T2 construct: not shown: human Fc tag
T2 sequence: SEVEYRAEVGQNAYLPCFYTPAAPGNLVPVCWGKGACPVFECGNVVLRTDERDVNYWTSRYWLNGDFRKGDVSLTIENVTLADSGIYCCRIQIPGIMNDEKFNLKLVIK

[3] = molecular target: T3, Tim-3 (form used in the assay not stated) (human, UniProt Q8TDQ0 22-202, limits assumed); assay: SPR, Fab, Test 1
[4] = molecular target: T3, Tim-3 (form used in the assay not …); assay: SPR, Fab, Test 2
[5] = molecular target: T3, Tim-3 (form used in the assay not …); assay: SPR, Fab, mean of Test 1 and Test 2
[6] = molecular target: T1, Tim-3-his; assay: BLI (ForteBio Octet), antibody captured on protein A tips, dipped in Tim-3-his solution
[7] = molecular target: T3, Tim-3 (form used in the assay not …); assay: ELISA on Tim-3, absorbance at OD450nm against antibody concentration
[8] = molecular target: Tim-3-mIgG2a (human; mouse, UniProt Q8TDQ0 22-202); assay: ELISA on Tim-3-mIg, absorbance at OD450nm against antibody concentration

B1: Ab2 in human IgG4 format with S228P mutation (antibody, V domains shown)
VH: EVQLLESGGGLVQPGGSLRLSCAAASGFTFSSYDMSWVRQAPGKGLDWVSTISGGGTYTYYQDSVKGRFTISRDNSKNTLYLQMNSLRAEDTAVYYCASMDYWGQGTTVTVSS
VL: DIQMTQSPSSLSASVGDRVTITCRASQSIRRYLNWYHQKPGKAPKLLIYGASTLQSGVPSRFSGSGSGTDFTLTISSLQPEDFAVYYCQQSHSAPLTFGGGTKVEIKR
notes: Known Tim-3 antibody, generated in human IgG4 format with S228P mutation
With B1 the Kd [1] was 19.4 nM, the koff [1] was 0.0122 s⁻¹ and the kon [1] was 627000 M⁻¹ s⁻¹.

B2: Ab1 in human IgG4 format with S228P mutation (antibody, V domains shown)
VH: QVQLVQSGAEVKKPGSSVKVSCKASGYTFTSYNMHWVRQAPGQGLEWMGDIYPGNGDTSYNQKFKGRVTITADKSTSTVYMELSSLRSEDTAVYYCARVGGAFPMDYWGQGTTVTVSS
VL: AIQLTQSPSSLSASVGDRVTITCRASESVEYYGTSLMQWYQQKPGKAPKLLIYAASNVESGVPSRFSGSGSGTDFTLTISSLQPEDFATYFCQQSRKDPSTFGGGTKVEIK
notes: as for B1
For B2, the Kd [1] was 0.271 nM, the koff [1] was 0.00012 s⁻¹ and the kon [1] was 444000 M⁻¹ s⁻¹.

B3: mu425 (antibody, V domains shown)
VH: EVKLVESGGGLVKPGGSLKLSCAASGFTFSRYAMSWVRQIPEKRLEWVAAISSGGSLYFPDSVKGRFTISRDNARNICYLQMNSLRSDDTAMYYCARGREADGGYFDYWGQGTTLTVSS
VL: DIVLTQSPASLAVSLGQRATISCRASESVEYYGTSLMQWYQQKPGQPPKLLIYAASNVESGVPARFSGSGSGTDFSLNIHPVEEDDIAMYFCQQSMKVPLTFGAGTKLELK
notes: Murine hybridoma mAb, purified
With B3 the Kd [2] was 0.058 nM, the koff [2] was 9.33e-05 s⁻¹ and the kon [2] was 1.59e+06 M⁻¹ s⁻¹.

B4: ch425 Fab (Fab, V domains shown)
VH: EVKLVESGGGLVKPGGSLKLSCAASGFTFSRYAMSWVRQIPEKRLEWVAAISSGGSLYFPDSVKGRFTISRDNARNICYLQMNSLRSDDTAMYYCARGREADGGYFDYWGQGTTLTVSS
VL: DIVLTQSPASLAVSLGQRATISCRASESVEYYGTSLMQWYQQKPGQPPKLLIYAASNVESGVPARFSGSGSGTDFSLNIHPVEEDDIAMYFCQQSMKVPLTFGAGTKLELKR
notes: Fab prepared from the mAb with the Pierce Fab Preparation Kit
B4 gave a Kd [3] of 0.122 nM, a koff [3] of 0.000204 s⁻¹ and a kon [3] of 1.67e+06 M⁻¹ s⁻¹.

B5: hu425-2-2 Fab (Fab, V domains shown)
VH: EVQLVESGGGLVQPGGSLRLSCAASGFTFSRYAMSWVRQAPGKGLEWVAAISSGGSLYYPDSVKGRFTISRDNAKNTLYLQMNSLRAEDTAVYYCARGREADGGYFDYWGQGTLVTVSS
VL: EIVMTQSPATLSVSPGERATLSCRASESVEYYGTSLMQWYQQKPGQAPRLLIYAASNVESGIPARFSGSGSGTEFTLTISSLQSEDFAVYYCQQSLKVPLTFGGGTKVEIK
notes: Fab prepared from the mAb with the Pierce Fab Preparation Kit; Only the variable domains are tied to the name. hu425s were engineered in the human IgG1 format
Work on B5 yielded a Kd [3] of 0.434 nM, a koff [3] of 0.00074 s⁻¹ and a kon [3] of 1.71e+06 M⁻¹ s⁻¹. It also gave a Kd [4] of 0.404 nM, a koff [4] of 0.000795 s⁻¹ and a kon [4] of 1.97e+06 M⁻¹ s⁻¹. For the same binder, the Kd [5] was 0.419 nM.

B6: Hu425-2-3b in human IgG4 format with S228P mutation (antibody, V domains shown)
VH: EVQLVESGGGLVQPGGSLRLSCAASGFTFSRYAMSWVRQAPGKGLEWVAAISSGGSLYYPDSVKGRFTISRDNAKNTLYLQMNSLRAEDTAVYYCARGREADGGYFDYWGQGTLVTVSS
VL: EIVLTQSPATLSVSPGERATLSCRASESVEYYGTSLMQWYQQKPGQAPRLLIYAASNVESGIPARFSGSGSGTEFTLTISSLQSEDFAVYYCQQSLKVPLTFGGGTKVEIK
In the case of B6, the Kd [1] is reported as 1.47 nM, the koff [1] is reported as 0.000778 s⁻¹ and the kon [1] is reported as 528000 M⁻¹ s⁻¹.

B7: hybrid antibody 425 HC/Ab1 LC (antibody, V domains shown)
VH: EVQLVESGGGLVQPGGSLRLSCAASGFTFSRYAMSWVRQAPGKGLEWVAAISSGGSLYYPDSVKGRFTISRDNAKNTLYLQMNSLRAEDTAVYYCARGREADGGYFDYWGQGTLVTVSS
VL: AIQLTQSPSSLSASVGDRVTITCRASESVEYYGTSLMQWYQQKPGKAPKLLIYAASNVESGVPSRFSGSGSGTDFTLTISSLQPEDFATYFCQQSRKDPSTFGGGTKVEIK
B7: no binding [6].

B8: hu425-1-1 Fab (Fab, V domains shown)
VH: EVQLVESGGGLVQPGGSLRLSCAASGFTFSRYAMSWVRQAPGKGLEWVAAISSGGSLYFPDSVKGRFTISRDNAKNSCYLQMNSLRAEDTAVYYCARGREADGGYFDYWGQGTLVTVSS
VL: DIVLTQSPATLSVSPGERATLSCRASESVEYYGTSLMQWYQQKPGQAPRLLIYAASNVESGVPARFSGSGSGTDFTLTISSLQSEDFAVYYCQQSMKVPLTFGGGTKVEIKR
notes: as for B4
B8 was tested, and the Kd [3] was 0.159 nM, the koff [3] was 0.000108 s⁻¹ and the kon [3] was 679000 M⁻¹ s⁻¹. For the same binder, the Kd [4] was 0.346 nM, the koff [4] was 0.000435 s⁻¹ and the kon [4] was 1.26e+06 M⁻¹ s⁻¹. It also gave a Kd [5] of 0.253 nM.

B9: hu425-2F-1 (antibody, human IgG1, kappa, V domains shown)
VH: EVQLVESGGGLVQPGGSLRLSCAASGFTFSRYAMSWVRQAPGKGLEWVAAISSGGSLYFPDSVKGRFTISRDNAKNSCYLQMNSLRAEDTAVYYCARGREADAGYFDYWGQGTLVTVSS
VL: DIVLTQSPATLSVSPGERATLSCRASESVEYYGTSLMQWYQQKPGQAPRLLIYAASNVESGVPARFSGSGSGTDFTLTISSLQSEDFAVYYCQQSMKVPLTFGGGTKVEIKR
notes: Single amino acid mutation from hu425-1-1; also called G103A
B9: no binding [7].

B10: hu425-2-3b (antibody, V domains shown)
VH: EVQLVESGGGLVQPGGSLRLSCAASGFTFSRYAMSWVRQAPGKGLEWVAAISSGGSLYYPDSVKGRFTISRDNAKNTLYLQMNSLRAEDTAVYYCARGREADGGYFDYWGQGTLVTVSS
VL: EIVLTQSPATLSVSPGERATLSCRASESVEYYGTSLMQWYQQKPGQAPRLLIYAASNVESGIPARFSGSGSGTEFTLTISSLQSEDFAVYYCQQSLKVPLTFGGGTKVEIK
notes: Full chains are not tied to the name
In the case of B10, the “EC50 (read off the curve)” value [8] is reported as about 0.01 µg/mL.

B11: hu425-2-3b Fab (Fab, V domains shown)
VH: EVQLVESGGGLVQPGGSLRLSCAASGFTFSRYAMSWVRQAPGKGLEWVAAISSGGSLYYPDSVKGRFTISRDNAKNTLYLQMNSLRAEDTAVYYCARGREADGGYFDYWGQGTLVTVSS
VL: EIVLTQSPATLSVSPGERATLSCRASESVEYYGTSLMQWYQQKPGQAPRLLIYAASNVESGIPARFSGSGSGTEFTLTISSLQSEDFAVYYCQQSLKVPLTFGGGTKVEIK
notes: Fab prepared from the mAb with the Pierce Fab Preparation Kit; Only the variable domains are tied to the name
Binder B11 has a Kd [3] of 0.356 nM, a koff [3] of 0.00057 s⁻¹ and a kon [3] of 1.6e+06 M⁻¹ s⁻¹. It also gave a Kd [4] of 0.366 nM, a koff [4] of 0.00064 s⁻¹ and a kon [4] of 1.75e+06 M⁻¹ s⁻¹. It also gave a Kd [5] of 0.361 nM.

Source: patent publication US20240076375A1 (BEIGENE, published 2024)
